Columns and labels:
[1] = molecular target: TgVps26-HA (Toxoplasma gondii); test: affinity purification with mass spectrometry; absolute quantification of TgVps35, TgVps26 and TgVps29 in the immunoprecipitates by microLC-SRM with stable isotope-labelled standard peptides, three proteotypic peptides per protein
[2] = molecular target: TgVps29-cMyc (Toxoplasma gondii); test: as above

## TgVps35-HA (natural protein)
[1]
  stoichiometry N (TgVps35 per TgVps26): 1
[2]
  stoichiometry N (TgVps35 per TgVps29): 3

Source: PMC4831018
